Measurements published in the supplement of paper PMC10567573.

B1: TMEM106C (parent)
chain: YVTTNVSLIPPRSEQLVNFTGKAE
B2: MYL5 (parent)
chain: FQFASIDVAGNLDYKALSYVITHG

Variants of: B1
Assay: protein stability index of a GFP-peptide fusion (GPS, HEK-293T) (PSI 1-6); higher = more stable
Settings: c terminus: a fixed tail appended
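Note: lentivirally expressed fusions sorted by FACS into six bins by GFP to DsRed ratio, PSI derived from sequencing read proportions per bin multiplied by bin number.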

Protein stability index of substitutions, site by site:
Y1: I 2.46 | N 3.79 | F 2.21 | A 3.53 | R 3.44 | E 3.54 | D 3.69 | L 2.94 | G 4 | K 3.61 | C 2.4 | H 3.88 | T 3.44 | P 3.49 | S 3.24 | M 3.08 | W 2.15 | Q 3.17 | V 2.19
N5: S 1.63 | K 2.41 | C 2.28 | I 2.24 | L 2.32 | H 1.66 | Q 2.71 | E 2.05 | A 1.91 | M 2.16 | G 1.22 | D 1.96 | V 1.69 | F 2.64 | W 3.52 | T 2.52 | Y 2.98 | R 2.17 | P 2.67
T3: G 2.11 | S 1.98 | H 1.98 | W 2.91 | Q 2.64 | C 2.3 | Y 2.45 | I 2.12 | R 2.52 | E 2.99 | N 1.82 | F 2.58 | M 1.46 | D 1.9 | A 2.75 | V 1.98 | L 2.15 | K 2.18 | P 3.42
L8: G 2.39 | T 1.95 | P 1.75 | W 2.1 | V 1.67 | I 2.04 | E 2.61 | D 2.44 | Q 1.53 | K 1.71 | M 2.5 | C 1.66 | S 2.26 | A 2.21 | H 2.16 | F 2.54 | N 1.98 | Y 1.86 | R 1.6
T4: A 1.71 | L 2.45 | W 2.85 | R 2.23 | K 1.77 | C 1.29 | N 2.1 | Q 2.54 | D 2.03 | M 2.59 | H 2.07 | G 1.89 | E 1.94 | P 2.43 | V 1.51 | I 1.75 | Y 2.24 | F 1.43 | S 1.86
V2: M 3.03 | W 2.66 | T 3.48 | P 3.98 | F 2.98 | A 2.81 | H 2.62 | Q 3.28 | N 4.08 | S 3.79 | G 4.17 | L 2.83 | Y 3.22 | D 4.58 | I 2.67 | C 2.3 | E 4.58 | K 3.51 | R 3.23
P10: Y 2.88 | L 1.86 | A 3.06 | E 1.66 | C 2.58 | D 1.46 | R 3 | W 2.56 | K 2.45 | T 2.42 | G 3.2 | H 1.91 | I 2.65 | F 2.74 | M 2.82 | N 2.78 | Q 2.26 | S 1.82 | V 3.38
I9: A 2.94 | K 2.02 | L 1.7 | D 2.24 | M 1.86 | W 1.75 | G 1.6 | S 1.71 | F 1.7 | C 1.2 | T 2.43 | V 1.51 | E 2.25 | R 1.99 | N 2.17 | Q 1.61 | H 2.46 | P 1.81 | Y 2.32
R12: D 1.92 | E 1.9 | A 2.85 | C 1.86
V6: A 1.86 | C 1.82 | W 2.57 | D 2.37 | R 1.92 | E 2.36 | S 1.91 | K 1.87 | F 3.64 | N 2.26 | G 1.77 | L 2.06 | Q 1.68 | Y 2.76 | P 2 | T 2.02 | H 1.59 | I 1.86 | M 1.75
P11: H 1.97 | M 1.45 | Q 2.12 | T 1.74 | A 1.6 | Y 2.75 | D 2.11 | R 1.41 | K 2.01 | S 2.65 | L 1.51 | V 1.41 | N 2.37 | F 3.09 | E 1.72 | W 3.67 | G 2.51 | I 2.3
S7: P 2.81 | Y 3.23 | L 2.45 | D 2.37 | Q 2.27 | F 1.83 | C 2.56 | H 2.29 | I 3.34 | A 1.31 | E 2.13 | W 1.54 | V 1.79 | R 2.13 | K 1.36 | G 2.36 | T 2.64 | N 2.18 | M 1.57

Variants of: B2
Assay: as above
Settings: c terminus: a fixed tail appended

Protein stability index: each site, then its substitutions
S18: K 1.62 | E 1.56 | I 2.66 | L 1.83 | M 3.46 | Q 1.49 | D 1.75
T22: I 2.55 | G 3.98 | M 2.95 | N 2.52 | E 2.02 | Q 2.54 | K 2.22 | D 1.8 | A 2.03 | H 3.83 | W 4.39 | C 2.52
I21: R 1.03 | P 2.18 | T 1.54 | Q 1.9 | G 2.37 | H 1.53 | A 2.79 | N 1.93 | Y 1.65 | D 2.57 | M 1.48 | E 2.11 | V 2.26 | K 1.64 | S 1.72
V20: M 1.49 | P 1.32 | S 3.47 | K 2.23 | C 3.44 | F 3.64 | R 2.46 | Y 1.3 | G 2.81 | A 3.37 | N 1.7 | T 2.29 | D 1.34 | H 3.27 | Q 2.96
Y14: W 3.44 | T 3.5
L17: W 2.39 | E 1.44 | G 2.72 | S 3.25 | M 3.7 | H 2.06 | K 2.71 | A 2.49 | C 3.94 | Q 2.03 | D 1.94 | Y 2.8 | T 2.2 | P 2.35 | N 1.39 | F 2.71
G24: R 3.26 | L 3.92 | A 3 | T 3.18 | Q 2.05 | F 2.42
Y19: P 1.43 | W 2.69 | R 2.11 | S 1.73 | K 1.06 | H 2.35 | N 2.41 | E 2.89 | G 3.74 | Q 3.41 | M 2.44 | F 1.87 | D 1.53 | T 1.83 | V 2.19
A16: T 2.44 | S 2.11 | Q 2.81 | K 2.25 | F 3.33 | D 3.18 | N 1.91 | V 3.37 | L 2.64 | E 2.37 | P 5.11
H23: D 2.25 | R 2.65 | K 1.43 | A 2.01 | L 2.78 | P 2.56 | T 2.42 | E 2.44 | Q 3.48
K15: F 2.81 | Q 3.65 | A 3.38 | G 1.5 | D 2.81 | T 3.79 | N 2.34 | E 1.14 | R 2.16 | S 2.31 | Y 3.8 | V 2.4 | H 2.12 | I 2.98
